First the molecules themselves.
B1: Flag-1–2–3–4 (2–371) (domain or fragment, UniProt P11940 2-371, looked up)
chain: NPSAPSYPMASLYVGDLHPDVTEAMLYEKFSPAGPILSIRVCRDMITRRSLGYAYVNFQQPADAERALDTMNFDVIKGKPVRIMWSQRDPSLRKSGVGNIFIKNLDKSIDNKALYDTFSAFGNILSCKVVCDENGSKGYGFVHFETQEAAERAIEKMNGMLLNDRKVFVGRFKSRKEREAELGARAKEFTNVYIKNFGEDMDDERLKDLFGKFGPALSVKVMTDESGKSKGFGFVSFERHEDAQKAVDEMNGKELNGKQIYVGRAQKKVERQTELKRKFEQMKQDRITRYQGVNLYVKNLDDGIDDERLRKEFSPFGTITSAKVMMEGGRSKGFGFVCFSSPEEATKAVTEMNGRIVATKPLYVALAQRK
B6: GST-RRM2-3 (residues 97–299) (domain or fragment, UniProt P11940 97-299, looked up)
chain: GVGNIFIKNLDKSIDNKALYDTFSAFGNILSCKVVCDENGSKGYGFVHFETQEAAERAIEKMNGMLLNDRKVFVGRFKSRKEREAELGARAKEFTNVYIKNFGEDMDDERLKDLFGKFGPALSVKVMTDESGKSKGFGFVSFERHEDAQKAVDEMNGKELNGKQIYVGRAQKKVERQTELKRKFEQMKQDRITRYQGVNLYVK
B7: Flag-2–3 (97–299) (domain or fragment, UniProt P11940 97-299, looked up)
chain: GVGNIFIKNLDKSIDNKALYDTFSAFGNILSCKVVCDENGSKGYGFVHFETQEAAERAIEKMNGMLLNDRKVFVGRFKSRKEREAELGARAKEFTNVYIKNFGEDMDDERLKDLFGKFGPALSVKVMTDESGKSKGFGFVSFERHEDAQKAVDEMNGKELNGKQIYVGRAQKKVERQTELKRKFEQMKQDRITRYQGVNLYVK
B8: GST-CTD (residues 372–636) (domain or fragment, UniProt P11940 372-636, looked up)
chain: EERQAHLTNQYMQRMASVRAVPNPVINPYQPAPPSGYFMAAIPQTQNRAAYYPPSQIAQLRPSPRWTAQGARPHPFQNMPGAIRPAAPRPPFSTMRPASSQVPRVMSTQRVANTSTQTMGPRPAAAAAAATPAVRTVPQYKYAAGVRNPQQHLNAQPQVTMQQPAVHVQGQEPLTASMLASAPPQEQKQMLGERLFPLIQAMHPTLAGKITGMLLEIDNSELLHMLESPESLRSKVDEAVAVLQAHQAKEAAQKAVNSATGVPTV
B9: Flag-C (372–636) (domain or fragment, UniProt P11940 372-636, looked up)
chain: EERQAHLTNQYMQRMASVRAVPNPVINPYQPAPPSGYFMAAIPQTQNRAAYYPPSQIAQLRPSPRWTAQGARPHPFQNMPGAIRPAAPRPPFSTMRPASSQVPRVMSTQRVANTSTQTMGPRPAAAAAAATPAVRTVPQYKYAAGVRNPQQHLNAQPQVTMQQPAVHVQGQEPLTASMLASAPPQEQKQMLGERLFPLIQAMHPTLAGKITGMLLEIDNSELLHMLESPESLRSKVDEAVAVLQAHQAKEAAQKAVNSATGVPTV

For one data set, the target named is GST-PABP WT (UniProt P11940 1-636). As to the kind of experiment: co-IP.
In data set [1] the target is B6. In words: co-IP.
The data set “SEC” concerns the molecule itself. In words: SEC.
The target in data set [2] is B8. In words: co-IP.
The target of the data set “Flag-1–2–3–4 (2–371)” is B1. In words: co-IP.
In the data set “Flag-2–3 (97–299)” the target is B7. In words: co-IP.
Data set [3] addresses B6. As to the kind of experiment: pull-down.
The next data set has as its target His-PABP WT-Flag (UniProt P11940 2-636). As to the kind of experiment: co-IP.
The target of the data set “Flag-C (372–636)” is B9. As to the kind of experiment: co-IP.

On to B1, for which the binding result with GST-PABP WT is “binds”.

B2: Flag-1–2–3 (2–299) (domain or fragment, UniProt P11940 2-299, looked up)
chain: NPSAPSYPMASLYVGDLHPDVTEAMLYEKFSPAGPILSIRVCRDMITRRSLGYAYVNFQQPADAERALDTMNFDVIKGKPVRIMWSQRDPSLRKSGVGNIFIKNLDKSIDNKALYDTFSAFGNILSCKVVCDENGSKGYGFVHFETQEAAERAIEKMNGMLLNDRKVFVGRFKSRKEREAELGARAKEFTNVYIKNFGEDMDDERLKDLFGKFGPALSVKVMTDESGKSKGFGFVSFERHEDAQKAVDEMNGKELNGKQIYVGRAQKKVERQTELKRKFEQMKQDRITRYQGVNLYVK
For B2, in the data set with GST-PABP WT, the binding result is on record as “binds”.

B3: Flag-linker2-RRM3 (176–299) (domain or fragment, UniProt P11940 176-299, looked up)
chain: RKEREAELGARAKEFTNVYIKNFGEDMDDERLKDLFGKFGPALSVKVMTDESGKSKGFGFVSFERHEDAQKAVDEMNGKELNGKQIYVGRAQKKVERQTELKRKFEQMKQDRITRYQGVNLYVK
Consider B3, for which the binding result in data set [1] was “binds”.

B4: His-PABP 4EA mutant-Flag (natural protein, UniProt P11940 2-636, looked up)
chain: NPSAPSYPMASLYVGDLHPDVTEAMLYEKFSPAGPILSIRVCRDMITRRSLGYAYVNFQQPADAERALDTMNFDVIKGKPVRIMWSQRDPSLRKSGVGNIFIKNLDKSIDNKALYDTFSAFGNILSCKVVCDENGSKGYGFVHFETQEAAERAIEKMNGMLLNDRKVFVGRFKSRKARAAALGARAKAFTNVYIKNFGEDMDDERLKDLFGKFGPALSVKVMTDESGKSKGFGFVSFERHEDAQKAVDEMNGKELNGKQIYVGRAQKKVERQTELKRKFEQMKQDRITRYQGVNLYVKNLDDGIDDERLRKEFSPFGTITSAKVMMEGGRSKGFGFVCFSSPEEATKAVTEMNGRIVATKPLYVALAQRKEERQAHLTNQYMQRMASVRAVPNPVINPYQPAPPSGYFMAAIPQTQNRAAYYPPSQIAQLRPSPRWTAQGARPHPFQNMPGAIRPAAPRPPFSTMRPASSQVPRVMSTQRVANTSTQTMGPRPAAAAAAATPAVRTVPQYKYAAGVRNPQQHLNAQPQVTMQQPAVHVQGQEPLTASMLASAPPQEQKQMLGERLFPLIQAMHPTLAGKITGMLLEIDNSELLHMLESPESLRSKVDEAVAVLQAHQAKEAAQKAVNSATGVPTV
Take B4: the “stoichiometry N” value in the data set “SEC” worked out at 2.

B5: Flag-Linker (372–543) (domain or fragment, UniProt P11940 372-543, looked up)
chain: EERQAHLTNQYMQRMASVRAVPNPVINPYQPAPPSGYFMAAIPQTQNRAAYYPPSQIAQLRPSPRWTAQGARPHPFQNMPGAIRPAAPRPPFSTMRPASSQVPRVMSTQRVANTSTQTMGPRPAAAAAAATPAVRTVPQYKYAAGVRNPQQHLNAQPQVTMQQPAVHVQGQE
With B5, the binding result in data set [2] is “binds”.

With B6, the binding result with Flag-1–2–3–4 (2–371) and in the data set with Flag-2–3 (97–299) was “binds” each time.

Turning to B7, the binding result (in data set [3]; in the data set with GST-PABP WT) was “binds” in each case.

With B8, the binding result with His-PABP WT-Flag and in the data set with Flag-C (372–636) was “binds” throughout.

On to B9, for which the binding result with GST-PABP WT is “binds”.

Values taken from paper PMC8754640 (Nucleic Acids Research, 2021).
